Experimental data as given in patent US20060110789A1, “Methods to mediate polyketide synthase module effectiveness” (priority 2002, published 2006).

Experiments:
Format in all cases: biochemical
(5)M2+TE [1] = target: T1, (5)M2+TE (Saccharopolyspora erythraea, UniProt Q03131+Q03133); test: Labeling of holo-ACP4(4) with 14C-2a mediated by (5)M2+TE (back-transfer); details: 20 μM holo-ACP4(4), 1 mM 14C-2a, with and without 1 μM (5)M2+TE
T1 construct: The protein was, in each case, a single module of the DEBS PKS fused to the thioesterase (TE) termination region of module 6; first 39 amino acids of module 5 (N-ERL); made in house; host or cells: E. coli (BL21(DE3) with sfp)
Method: Labeling of Holo-ACP4(4) with ^14C-2a Mediated by (5)M2+TE. Holo-ACP4(4) (20 μM) was incubated with 1 mM [1-^14C]-labeled 2a (custom synthesized by Amersham Pharmacia, specific activity 55 mCi/mmol) and 1 μM (5)M2+TE in reaction buffer C for 10 min at 30° C. The protein was precipitated with 75% acetone/H2O for 5 min at −80° C. After washing the pellet with 6.25% (w/v) TCA to remove excess salts followed by 500 μL of 75% acetone/H2O to remove residual, unbound 14 C-2a, the precipitated protein was resuspended in 8 μL of buffer A and 4 μL of SDS sample buffer, and resolved on a 420% SDS-PAGE gradient gel (Bio-Rad). The proteins were visualized with Coomassie blue stain and dried, and the radioactivity was detected either on a Packard InstantImager or by exposing the gel to X-ray film.

(5)M6+TE = target: T2, (5)M6+TE (Saccharopolyspora erythraea, UniProt Q03133, DEL53-1503); test: Substrate transfer and elongation assay, acceptor DEBS module 6; details: 20 μM substrate, 2 hours
T2 construct: The protein was, in each case, a single module of the DEBS PKS fused to the thioesterase (TE) termination region of module 6; first 39 amino acids of module 5 (N-ERL); made in house; host or cells: E. coli (BL21(DE3) with sfp)
Method: (§1) Substrate transfer and elongation assays. Qualitative assays were performed with a diketide-ACP or diketide-PCP substrate either taken directly from the so phosphopantetheinlyation reaction or after further purification of the substrate. These assays were performed with 20 μM diketide-ACP/PCP substrate for 2 hours in the following reaction conditions: 1 μM acceptor module, 0.5 mM ^14C-methylmalonyl CoA, 4 mM NADPH in buffer C, 30° C. After quenching by addition of 250 μL EtOAc and vortexing, the products were extracted with 2×250 μL EtOAc, resolved on a silica gel TLC plate, and visualized on a Packard InstantImager.
(§2) The kinetics of substrate transfer at the module 2-module 3 interface followed by elongation and product release were examined as a function of the k60 μM and kcat/KM values of the overall reaction. […] In many cases, the k60μm values approximate the maximal overall turnover rates, as determined by back calculating the KM value for the reactions. True saturation kinetics were not practical because of the technical limitations (e.g., solubility) and limited supply associated with high molecular weight substrates such as diketide-ACP and diketide-PCP. kcat/KM values were determined by competitive assay of the substrate of interest against a substrate with a known kcat/KM value, as previously described (Wu, et al., (2001) J. Am. Chem. Soc. 123, 6465-6474). […]

(5)M2+TE [2] = target: T1, (5)M2+TE; test: Substrate transfer and elongation assay, acceptor DEBS module 2; details: 20 μM substrate, 2 hours
Method: as §1, §2

B1: holo-ACP4(4): phosphopantetheinylated DEBS ACP4 domain with its natural C-terminal linker (protein)
chain: HHHHHHNVVDRLAGRSESDQVAGLAELVRSHAAAVSGYGSADQLPERKAFKDLGFDSLAAVELRNRLGTATGVRLPSTLVFDHPTPLAVAEHLRDRLFAASPAVDIGDRLDELEKALEALSAEDGHDDVGQRLESLLRRWNSRRADAPSTSAISEDASDDELFSMLDQRFGGGEDL
radiolabeling of the ACP by 14C-2a ((5)M2+TE [1]): radiolabeled only in the reaction containing (5-M2+TE

B2: diketide-ACP2(Ø): diketide on isolated ACP2 domain without linker region (conjugate)
chain: HHHHHHDRLAGLPRAERTAELVRLVRTSTATVLGHDDPKAVRATTPFKELGFDSLAAVRLRNLLNAATGLRLPSTLVFDHPNASAVAGFLDAELG
qualitative transfer of diketide to (5)M6+TE ((5)M6+TE): able to channel the diketide substrate
qualitative transfer of diketide to (5)M2+TE ((5)M2+TE [2]): able to channel the diketide substrate

B3: diketide-eryLDD(Ø): diketide on the DEBS loading didomain with no C-terminal linker (conjugate)
chain: MSGPRSRTTSRRTPVRIGAVVVASSTSELLDGLAAVADGRPHASVVRGVARPSAPVVFVFPGQGAQWAGMAGELLGESRVFAAAMDACARAFEPVTDWTLAQVLDSPEQSRRVEVVQPALFAVQTSLAALWRSFGVTPDAVVGHSIGELAAAHVCGAAGAADAARAAALWSREMIPLVGNGDMAAVALSADEIEPRIARWDDDVVLAGVNGPRSVLLTGSPEPVARRVQELSAEGVRAQVINVSMAAHSAQVDDIAEGMRSALAWFAPGGSEVPFYASLTGGAVDTRELVADYWRRSFRLPVRFDEAIRSALEVGPGTFVEASPHPVLAAALQQTLDAEGSSAAVVPTLQRGQGGMRRFLLAAAQAFTGGVAVDWTAAYDDVGPNPALCRSSRRPRRKTSRPSPASTGTRHRTCCERLLAVVNGETAALAGREADAEATFRELGLDSVLAAQLRAKVSAAIGREVNIALLYDHPTPRALAEALAAGT
modifications: non-natural residues
notes: diketide on the DEBS loading didomain with no C-terminal linker
qualitative transfer of diketide to (5)M6+TE ((5)M6+TE): able to channel the diketide substrate
qualitative transfer of diketide to (5)M2+TE ((5)M2+TE [2]): able to channel the diketide substrate
